Test results taken from patent publication US20220372155A1 (LYVGEN BIOPHARMA, published 2022).
Blank lines part the entries; values can stand above or below the binder they belong to.

Experiments:
[1] = target: T1, Ly090 (human CD40 ECD protein with His tag) (human, UniProt P25942 21-193); assay: bridging ELISA, coated CD40 ECD-His, soluble PD-L1 ECD-mFc
T1 construct: extracellular domain; also called human CD40 ECD protein (His tag); recombinant human CD40; not shown: His tag
Procedure: (§1) Exemplary anti-PD-L1/CD40 bi-specific antibodies were analyzed by ELISA for their simultaneous binding to recombinant human PD-L1 and human CD40. Briefly, Ly090 (human CD40 ECD protein with His tag) was diluted and coated onto an ELISA plate with a volume of 100 μL/well by incubation at 4° C. overnight. The next day, the plate was blocked by PBST-BSA buffer, then serially diluted samples of anti-PD-L1/CD40 bi-specific antibodies were pipetted into appropriate wells at 50 μL/well, and the plate was incubated for 1 h followed by Washing. Human PD-L1 ECD protein (mouse IgG2a Fc tag) was added into the plate at 50 μL/well. After 1-hour incubation at room temperature, HRP-conjugated anti-Mouse IgG, Fc G2a antibody was added into the plate at 100 μL/well. The plate was incubated for 1 hour at room temperature followed by washing. TMB substrate solution was added at 100 μL/well and the color development was stopped by adding 100 uL/well Stop Solution (2N H₂SO₄). Absorbance at 450 nm and 620 nm was read by Tecan F200 Pro plate reader. GraphPad 7.0, “[Agonist] vs. response—Variable slope (four parameters)” was used to plot the binding data and calculate binding EC50 values.

[2] = target: T2, Human PD-L1 ECD protein (mouse IgG2a Fc tag) (human, UniProt Q9NZQ7 19-238); assay: as above
T2 construct: extracellular domain; also called recombinant human PD-L1; not shown: mouse IgG2a Fc tag
T2 sequence (Q9NZQ7 19-238): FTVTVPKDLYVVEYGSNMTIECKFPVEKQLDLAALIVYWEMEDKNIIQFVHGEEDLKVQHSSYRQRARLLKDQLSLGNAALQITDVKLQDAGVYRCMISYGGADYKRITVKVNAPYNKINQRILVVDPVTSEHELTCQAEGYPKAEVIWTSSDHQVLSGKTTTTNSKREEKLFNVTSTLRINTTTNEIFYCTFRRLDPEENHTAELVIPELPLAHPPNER
Procedure: as §1

[3] = target: T3, human PD-L1 expressed on CHO cells (human, UniProt Q9NZQ7 19-290); assay: FACS, CHO cells
T3 construct: whole, on cells; also used for human PD-L1 on Raji cells in the reporter assay; also called cell surface PD-L1; Raji-PD-L1 cells
T3 sequence (Q9NZQ7 19-290): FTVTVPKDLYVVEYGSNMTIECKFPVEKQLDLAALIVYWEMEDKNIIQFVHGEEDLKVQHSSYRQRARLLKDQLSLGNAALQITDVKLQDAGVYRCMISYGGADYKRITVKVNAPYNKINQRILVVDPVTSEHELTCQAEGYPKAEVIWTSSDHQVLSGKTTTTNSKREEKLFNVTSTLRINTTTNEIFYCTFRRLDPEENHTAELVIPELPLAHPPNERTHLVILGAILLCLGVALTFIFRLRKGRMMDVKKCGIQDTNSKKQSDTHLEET

[4] = target: T4, human CD40 expressed on CHO cells (human, UniProt P25942 21-277); assay: FACS, CHO cells
T4 construct: whole, on cells; also used for the reporter cells over-expressing human CD40; also called cellular CD40; CHO-CD40 cells
T4 sequence (P25942 21-277): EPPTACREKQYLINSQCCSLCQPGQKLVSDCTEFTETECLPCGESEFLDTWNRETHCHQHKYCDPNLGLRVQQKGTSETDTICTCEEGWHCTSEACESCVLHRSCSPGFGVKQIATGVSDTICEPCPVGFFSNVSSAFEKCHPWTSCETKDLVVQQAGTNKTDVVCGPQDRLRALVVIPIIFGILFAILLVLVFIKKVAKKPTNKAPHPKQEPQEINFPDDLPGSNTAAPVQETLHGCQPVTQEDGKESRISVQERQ

[5] = target: T1, Ly090 (human CD40 ECD protein with His …); assay: bridging ELISA, coated CD40 ECD-His, soluble PD-1 ECD-mFc
Procedure: (§2) Briefly, human CD40 ECD protein (His tag) was diluted and coated onto an ELISA plate with a volume of […] by incubation at 4° C. overnight. […] After 1-hour incubation at room temperature, HRP-conjugated anti-Mouse IgG (H+L) antibody was added into the plate at 100 μL/well. The plate was incubated for 1 hour at room temperature followed by washing. TMB substrate solution was added at 100 μL/well and the color development was stopped by adding 100 uL/well Stop Solution (2N H2SO4). Absorbance at 450 nm and 620 nm was read by Tecan F200 Pro plate reader. GraphPad 7.0, “[Agonist] vs. response—Variable slope (four parameters)” was used to plot the binding data and calculate binding EC50 values.

[6] = target: T5, Human PD-1-ECD protein (mouse IgG2a Fc tag) (human, UniProt Q15116 25-170); assay: as above
T5 construct: extracellular domain; also called soluble human recombinant PD-1; not shown: mouse IgG2a Fc tag
T5 sequence (Q15116 25-170): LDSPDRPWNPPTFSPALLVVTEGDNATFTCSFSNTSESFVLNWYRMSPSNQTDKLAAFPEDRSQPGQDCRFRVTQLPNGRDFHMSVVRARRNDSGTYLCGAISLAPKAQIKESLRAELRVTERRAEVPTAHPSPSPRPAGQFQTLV
Procedure: as §2

[7] = target: T6, human PD-1 expressed on CHO cells (human, UniProt Q15116 25-288); assay: FACS, CHO cells
T6 construct: whole, on cells; also used for human PD-1 on Jurkat reporter cells; also called Jurkat/NFkB-Luci/PD-1 cells
T6 sequence (Q15116 25-288): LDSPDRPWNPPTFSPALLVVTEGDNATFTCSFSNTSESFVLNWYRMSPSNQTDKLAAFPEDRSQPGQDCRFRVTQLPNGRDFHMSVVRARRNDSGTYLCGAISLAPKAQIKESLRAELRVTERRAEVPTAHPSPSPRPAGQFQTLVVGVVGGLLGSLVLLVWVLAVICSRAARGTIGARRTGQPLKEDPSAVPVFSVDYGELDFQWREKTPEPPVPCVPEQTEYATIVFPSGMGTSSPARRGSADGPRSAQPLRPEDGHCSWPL

T1 sequence (P25942 21-193): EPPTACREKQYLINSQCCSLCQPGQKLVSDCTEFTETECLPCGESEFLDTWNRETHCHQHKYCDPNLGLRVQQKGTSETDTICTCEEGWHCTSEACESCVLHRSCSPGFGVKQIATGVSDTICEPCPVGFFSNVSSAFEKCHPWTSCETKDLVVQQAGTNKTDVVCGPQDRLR

binding result [1]: binds
binding result [2]: binds
binding result [3]: binds
binding result [4]: binds
B1: Ly301 (bispecific antibody, human IgG1, kappa)
heavy: QVQLVQSGAEVKKPGASVKVSCKASGYTFTDFWMSWVRQAPGQGLEWMGQIYPNTGTTHSNEKFKGRVTMTRDTSTSTVYMELSSLRSEDTAVYYCARSYHISTTPNWFAYWGQGTLVTVSSASTKGPSVFPLAPSSKSTSGGTAALGCLVKDYFPEPVTVSWNSGALTSGVHTFPAVLQSSGLYSLSSVVTVPSSSLGTQTYICNVNHKPSNTKVDKKVEPKSCDKTHTCPPCPAPELLGPSVFLFPPKPKDTLMISRTPEVTCVVVDVSHEDPEVKFNWYVDGVEVHNAKTKPREEQYNSTYRVVSVLTVLHQDWLNGKEYKCKVSNKALPAPIEKTISKAKGQPREPQVYTLPPSREEMTKNQVSLTCLVKGFYPSDIAVEWESNGQPENNYKTTPPVLDSDGSFFLYSKLTVDKSRWQQGNVFSCSVMHEALHNHYTQKSLSLSPGGGGGSGGGGSGGGGSGGGGSDIQMTQSPSSLSASVGDRVTITCKASQNIYIYLNWYQQKPGKAPKLLIYNTNNLQTGVPSRFSGSGSGTDFTLTISSLQPEDFATYYCLQHSSRRTFGGGTKVEIKGGGGSGGGGSGGGGSGGGGSQVQLVESGGGLVQPGGSLKLSCATSGFNFNDYFMNWVRQASGKGLEWVGQIRNKNYNYATYYTESLEGRVTISRDDSKNTAYLQMNSLKTEDTAVYYCTSYYYDGFADYFDYWGQGTTVTVSS
light: DIQMTQSPSSLSASVGDRVTITCKASQNVYKKLEWYQQKPGKVPKVLIYHTNILQTGVPSRFSGSGSGTDYTLTISSLQPEDVATYYCYQWNSGPTFGGGTKVEIKRTVAAPSVFIFPPSDEQLKSGTASVVCLLNNFYPREAKVQWKVDNALQSGNSQESVTEQDSKDSTYSLSSTLTLSKADYEKHKVYACEVTHQGLSSPVTKSFNRGEC
notes: Ly076 HC (IgG1 mutated Fc)-TM740 scFv VL-VH + Ly076 LC

binding result [1]: binds
binding result [2]: binds
binding result [3]: binds
binding result [4]: binds
B2: Ly338 (bispecific antibody, human IgG1, kappa)
heavy: QVQLVQSGAEVKKPGASVKVSCKASGYTFTDFWMSWVRQAPGQGLEWMGQIYPNTGTTHSNEKFKGRVTMTRDTSTSTVYMELSSLRSEDTAVYYCARSYHISTTPNWFAYWGQGTLVTVSSASTKGPSVFPLAPSSKSTSGGTAALGCLVKDYFPEPVTVSWNSGALTSGVHTFPAVLQSSGLYSLSSVVTVPSSSLGTQTYICNVNHKPSNTKVDKKVEPKSCDKTHTCPPCPAPELLGPSVFLFPPKPKDTLMISRTPEVTCVVVDVSHEDPEVKFNWYVDGVEVHNAKTKPREEQYNSTYRVVSVLTVLHQDWLNGKEYKCKVSNKALPAPIEKTISKAKGQPREPQVYTLPPSREEMTKNQVSLTCLVKGFYPSDIAVEWESNGQPENNYKTTPPVLDSDGSFFLYSKLTVDKSRWQQGNVFSCSVMHEALHNHYTQKSLSLSPGGGGGSGGGGSGGGGSGGGGSQVQLVESGGGLVQPGGSLKLSCATSGFNFNDYFMNWVRQASGKGLEWVGQIRNKNYNYATYYTESLEGRVTISRDDSKNTAYLQMNSLKTEDTAVYYCTSYYYDGFADYFDYWGQGTTVTVSSGGGGSGGGGSGGGGSGGGGSDIQMTQSPSSLSASVGDRVTITCKASQNIYIYLNWYQQKPGKAPKLLIYNTNNLQTGVPSRFSGSGSGTDFTLTISSLQPEDFATYYCLQHSSRRTFGGGTKVEIK
light: B1 light
notes: Ly076 HC (IgG1 mutated Fc)-TM740 scFv VH-VL + Ly076 LC

binding result [5]: binds
binding result [6]: binds
binding result [7]: binds
binding result [4]: binds
B3: Ly609 (bispecific antibody, human IgG1, kappa)
heavy: QVTLKESGPALVKPTQTLTLTCTFSGFSLSTSGTCVSWIRQPPGKALEWLATICWEDSKGYNPSLKSRLTISKDTSKNQAVLTMTNMDPVDTATYYCARREDSGYFWFPYWGQGTLVTVSSASTKGPSVFPLAPSSKSTSGGTAALGCLVKDYFPEPVTVSWNSGALTSGVHTFPAVLQSSGLYSLSSVVTVPSSSLGTQTYICNVNHKPSNTKVDKKVEPKSCDKTHTCPPCPAPELLGPSVFLFPPKPKDTLMISRTPEVTCVVVDVSHEDPEVKFNWYVDGVEVHNAKTKPREEQYNSTYRVVSVLTVLHQDWLNGKEYKCKVSNKALPAPIEKTISKAKGQPREPQVYTLPPSREEMTKNQVSLTCLVKGFYPSDIAVEWESNGQPENNYKTTPPVLDSDGSFFLYSKLTVDKSRWQQGNVFSCSVMHEALHNHYTQKSLSLSPGGGGGSGGGGSGGGGSGGGGSEVQLVESGGGLVQPGGSLRLSCAASGFTFTNYGLHWVRQAPGKGLEWVSSISPSGGVTYYRDSVKGRFTISRDNSKNTLYLQMNSLRAEDTAVYYCAKPFLGWGGANWIAHWGQGTLVTVSSGGGGSGGGGSGGGGSGGGGSDIQMTQSPSSLSASVGDRVTITCLASEDISNDLAWYQQKPGKAPKLLIYFVDRLLDGVPSRFSGSGSGTDFTLTISSLQPEDFATYYCQQSYKYPPTFGQGTKLEIK
light: NIQMTQSPSSLSASVGDRVTITCKAGQNVNNYLAWYQQKPGKAPKVLIFNANSLQTGVPSRFSGSGSGTDFTLTISSLQPEDFATYYCQQYNSWPTFGGGTKVEIKRTVAAPSVFIFPPSDEQLKSGTASVVCLLNNFYPREAKVQWKVDNALQSGNSQESVTEQDSKDSTYSLSSTLTLSKADYEKHKVYACEVTHQGLSSPVTKSFNRGEC
notes: Ly516 HC (IgG1 mutated Fc)-TM559 scFv VH-VL + Ly516 LC

binding result [1]: binds
binding result [2]: binds
binding result [3]: binds
binding result [4]: binds
B4: Ly349 (bispecific antibody, human IgG1, kappa)
heavy: QVQLVQSGAEVKKPGASVKVSCKASGYTFTDFWMSWVRQAPGQGLEWMGQIYPNTGTTHSNEKFKGRVTMTRDTSTSTVYMELSSLRSEDTAVYYCARSYHISTTPNWFAYWGQGTLVTVSSASTKGPSVFPLAPSSKSTSGGTAALGCLVKDYFPEPVTVSWNSGALTSGVHTFPAVLQSSGLYSLSSVVTVPSSSLGTQTYICNVNHKPSNTKVDKKVEPKSCDKTHTCPPCPAPELLGPSVFLFPPKPKDTLMISRTPEVTCVVVDVSHEDPEVKFNWYVDGVEVHNAKTKPREEQYNSTYRVVSVLTVLHQDWLNGKEYKCKVSNKALPAPIEKTISKAKGQPREPQVYTLPPSREEMTKNQVSLTCLVKGFYPSDIAVEWESNGQPENNYKTTPPVLDSDGSFFLYSKLTVDKSRWQQGNVFSCSVMHEALHNHYTQKSLSLSPG
light: DIQMTQSPSSLSASVGDRVTITCKASQNVYKKLEWYQQKPGKVPKVLIYHTNILQTGVPSRFSGSGSGTDYTLTISSLQPEDVATYYCYQWNSGPTFGGGTKVEIKRTVAAPSVFIFPPSDEQLKSGTASVVCLLNNFYPREAKVQWKVDNALQSGNSQESVTEQDSKDSTYSLSSTLTLSKADYEKHKVYACEVTHQGLSSPVTKSFNRGECGGGGSGGGGSGGGGSGGGGSDIQMTQSPSSLSASVGDRVTITCKASQNIYIYLNWYQQKPGKAPKLLIYNTNNLQTGVPSRFSGSGSGTDFTLTISSLQPEDFATYYCLQHSSRRTFGGGTKVEIKGGGGSGGGGSGGGGSGGGGSQVQLVESGGGLVQPGGSLKLSCATSGFNFNDYFMNWVRQASGKGLEWVGQIRNKNYNYATYYTESLEGRVTISRDDSKNTAYLQMNSLKTEDTAVYYCTSYYYDGFADYFDYWGQGTTVTVSS
notes: Ly076 HC (IgG1 mutated Fc) + Ly076 LC-TM740 scFv VL-VH

binding result [1]: binds
binding result [2]: binds
binding result [3]: binds
binding result [4]: binds
B5: Ly339 (bispecific antibody, human IgG1, kappa)
heavy: B4 heavy
light: DIQMTQSPSSLSASVGDRVTITCKASQNVYKKLEWYQQKPGKVPKVLIYHTNILQTGVPSRFSGSGSGTDYTLTISSLQPEDVATYYCYQWNSGPTFGGGTKVEIKRTVAAPSVFIFPPSDEQLKSGTASVVCLLNNFYPREAKVQWKVDNALQSGNSQESVTEQDSKDSTYSLSSTLTLSKADYEKHKVYACEVTHQGLSSPVTKSFNRGECGGGGSGGGGSGGGGSGGGGSQVQLVESGGGLVQPGGSLKLSCATSGFNFNDYFMNWVRQASGKGLEWVGQIRNKNYNYATYYTESLEGRVTISRDDSKNTAYLQMNSLKTEDTAVYYCTSYYYDGFADYFDYWGQGTTVTVSSGGGGSGGGGSGGGGSGGGGSDIQMTQSPSSLSASVGDRVTITCKASQNIYIYLNWYQQKPGKAPKLLIYNTNNLQTGVPSRFSGSGSGTDFTLTISSLQPEDFATYYCLQHSSRRTFGGGTKVEIK
notes: Ly076 HC (IgG1 mutated Fc) + Ly076 LC-TM740 scFv VH-VL
